Measured values reported in patent US7521047 (GPC BIOTECH, dated 2009).
Numbering of substitutions follows the chain as printed. One block for each binder: values may come before it.

Legend:
[1] = molecular target: chimeric 0401-IE class II molecule on cells of transgenic mice (human/murine chimera); assay: cell-based or functional assay
[2] = molecular target: T1, human MHC class II DR protein (DRA*0101/DRB1*0401), purified from PRIESS cells (human, UniProt P01903 26-254; P01911 30-266, limits assumed); assay: SPR (BIAcore), MHCII on CM5 chip
T1 construct: mature; also called HLA-DR protein; MHCII
T1 MHC II alpha: not shown
T1 MHC II beta: not shown

[3] = molecular target: T1, human MHC class II DR protein …; assay: SPR (BIAcore), MHCII on CM5 chip
[4] = molecular target: T1, human MHC class II DR protein …; assay: ELISA, coated antigen, Fab 100 ng/well, read at 370 nm
Method: (§1) After washing in PBS the anti-human IgG F(ab')_2-peroxidase-conjugate at a 1:10,000 dilution in TBS (supplemented with 5% w/v non-fat drymilk/0.05% v/v Tween 20) was added to each well for 1 h. Final washes were carried out in PBS followed the addition the substrate POD (Roche).

[5] = molecular target: T2, BSA (bovine, UniProt P02769 25-607); assay: as above
T2 construct: negative control antigen; also called bovine serum albumine
Method: as §1

[6] = molecular target: T3, lysozyme; assay: as above
T3 construct: negative control antigen
Method: as §1

[7] = molecular target: T4, HLA-DR (DRA*0101/DRB1*0401) on PRIESS cells (human, UniProt P01903 26-254; P01911 30-266); assay: cell-based or functional assay
T4 MHC II alpha: not shown
T4 MHC II beta: not shown

[8] = molecular target: T1, human MHC class II DR protein …; assay: SPR (BIAcore), chip density 4000 RU MHCII

T3 sequence (P00698 19-147): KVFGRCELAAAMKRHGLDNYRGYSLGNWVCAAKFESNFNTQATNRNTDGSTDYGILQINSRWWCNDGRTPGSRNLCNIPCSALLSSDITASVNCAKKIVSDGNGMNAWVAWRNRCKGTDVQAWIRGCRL
T2 sequence (P02769 25-607 limits assumed): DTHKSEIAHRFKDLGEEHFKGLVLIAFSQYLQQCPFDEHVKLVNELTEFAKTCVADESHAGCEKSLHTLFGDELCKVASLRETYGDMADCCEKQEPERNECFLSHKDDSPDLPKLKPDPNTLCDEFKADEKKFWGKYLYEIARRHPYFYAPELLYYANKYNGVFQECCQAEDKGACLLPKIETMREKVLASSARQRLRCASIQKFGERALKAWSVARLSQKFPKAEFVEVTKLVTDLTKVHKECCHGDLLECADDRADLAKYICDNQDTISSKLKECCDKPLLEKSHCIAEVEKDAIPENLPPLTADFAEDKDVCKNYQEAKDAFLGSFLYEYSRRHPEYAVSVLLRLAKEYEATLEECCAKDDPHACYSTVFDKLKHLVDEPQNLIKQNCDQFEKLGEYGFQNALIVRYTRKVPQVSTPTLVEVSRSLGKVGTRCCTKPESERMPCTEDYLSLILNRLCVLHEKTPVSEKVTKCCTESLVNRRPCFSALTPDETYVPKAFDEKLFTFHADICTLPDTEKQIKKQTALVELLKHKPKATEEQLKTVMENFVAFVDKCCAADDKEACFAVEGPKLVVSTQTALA

IC50 of inhibition of IL-2 secretion from T-Hyb 1 cells [1]: 6.7 nM
Maximum inhibition(%) of IL-2 secretion [1]: 100%
B2: MS-GPC-8-6 IgG (antibody, V domains shown)
VH: QVQLKESGPALVKPTQTLTLTCTFSGFSLSTSGVGVGWIRQPPGKALEWLALIDWDDDKYYSTSLKTRLTISKDTSKNQVVLTMTNMDPVDTATYYCARSPRYRGAFDYWGQGTLVTVSS
VL: DIVLTQPPSVSGAPGQRVTISCSGSSSNIGSNYVSWYQQLPGTAPKLLIYDNNQRPSGVPDRFSGSKSGTSASLAITGLQSEDEADYYCQSYDYDHYVFGGGTKLTVLG

IC50 of inhibition of IL-2 secretion from T-Hyb 1 cells [1]: 5.9 nM (half the concentration of the Fab)
Maximum inhibition(%) of IL-2 secretion [1]: 100%
Kd [2]: 3.3 nM
koff [2]: 0.00057 s⁻¹
kon [2]: 174000 M⁻¹ s⁻¹
Kd [3]: 3.3 nM
koff [3]: 0.00057 s⁻¹
kon [3]: 170000 M⁻¹ s⁻¹
ELISA signal [4]: 1.55
B4: MS-GPC-8-27-7 Fab (Fab, V domains shown)
VH: B2 VH
VL: B2 VL with S26E, S31N, S35G, Y94M, D95N, H96V, Y97H
notes: Fab: VH-CH1 with FLAG tag and STREP tag II, VL-CL; VH residue 1 is Q in Fab

koff [2]: 0.007 s⁻¹
B5: MS-GPC-8-10 Fab (Fab, V domains shown)
VH: B2 VH
VL: B2 VL with Y94L, D95I, H96R, Y97H
notes: as for B4

IC50 of inhibition of IL-2 secretion from T-Hyb 1 cells [1]: 3 nM (half the concentration of the Fab)
Maximum inhibition(%) of IL-2 secretion [1]: 100%
Kd [2]: 6.3 nM
koff [2]: 0.0011 s⁻¹
kon [2]: 180000 M⁻¹ s⁻¹
Kd [3]: 6.3 nM
koff [3]: 0.0011 s⁻¹
kon [3]: 180000 M⁻¹ s⁻¹
ELISA signal [4]: 1.3
ELISA signal [5]: 0.003
binding result [5]: no binding (tested: 100 ng/well)
ELISA signal [6]: 0.006
B6: MS-GPC-8-6-27 Fab (Fab, V domains shown)
VH: B2 VH
VL: B2 VL with S26D, S31A, S35T
notes: as for B4

IC50 of inhibition of IL-2 secretion from T-Hyb 1 cells [1]: 4.7 nM (half the concentration of the Fab)
Maximum inhibition(%) of IL-2 secretion [1]: 100%
Kd [2]: 7.61 nM
koff [2]: 0.00094 s⁻¹
kon [2]: 123000 M⁻¹ s⁻¹
Kd [3]: 7.6 nM
koff [3]: 0.00094 s⁻¹
kon [3]: 120000 M⁻¹ s⁻¹
B8: MS-GPC-8-6-2 Fab (Fab, V domains shown)
VH: B2 VH
VL: B2 VL with S26E, S35H
notes: as for B4
EC50 of cell killing, cross-linked Fab, bivalent agent [7]: 8 nM

Kd [2]: 8.63 nM
koff [2]: 0.00103 s⁻¹
kon [2]: 120000 M⁻¹ s⁻¹
Kd [3]: 8.6 nM
koff [3]: 0.00103 s⁻¹
kon [3]: 120000 M⁻¹ s⁻¹
B10: MS-GPC-8-6-45 Fab (Fab, V domains shown)
VH: B2 VH
VL: B2 VL with S26E, S27P, S35F
notes: as for B4

Kd [2]: 108 nM
koff [2]: 0.0209 s⁻¹
kon [2]: 193000 M⁻¹ s⁻¹
Kd [8]: 108 nM
koff [8]: 0.0209 s⁻¹
kon [8]: 193000 M⁻¹ s⁻¹
B11: MS-GPC-8-1 Fab (Fab, V domains shown)
VH: B2 VH
VL: B2 VL with Y94F, D95S
notes: as for B4

koff [2]: 0.0066 s⁻¹
B14: MS-GPC-8-27 Fab (Fab, V domains shown)
VH: B2 VH
VL: B2 VL with Y94M, D95N, H96V, Y97H
notes: as for B4

IC50 of inhibition of IL-2 secretion from T-Hyb 1 cells [1]: 2.9 nM (half the concentration of the Fab)
Maximum inhibition(%) of IL-2 secretion [1]: 100%
ELISA signal [4]: 1.26
ELISA signal [5]: 0.003
binding result [5]: no binding (tested: 100 ng/well)
ELISA signal [6]: 0.014
B15: MS-GPC-8-10-57 Fab (Fab, V domains shown)
VH: B2 VH
VL: B2 VL with S26E, S31N, S35Q, Y94L, D95I, H96R, Y97H
notes: Fab: VH-CH1 with FLAG tag and STREP tag II, VL-CL; VH residue 1 is Q in Fab; also called 1C7277

IC50 of inhibition of IL-2 secretion from T-Hyb 1 cells [1]: 2.1 nM (half the concentration of the Fab)
Maximum inhibition(%) of IL-2 secretion [1]: 100%
Kd [3]: 3 nM
koff [3]: 0.00055 s⁻¹
kon [3]: 190000 M⁻¹ s⁻¹
ELISA signal [4]: 1.47
B16: MS-GPC-8-6-13 Fab (Fab, V domains shown)
VH: B2 VH
VL: B2 VL with S26E, S31A, S35T
notes: Fab: VH-CH1 with FLAG tag and STREP tag II, VL-CL; VH residue 1 is Q in Fab; also called 305D3

The remaining lines, values behind:

B1: MS-GPC-8-6-47 Fab (Fab, V domains shown)
VH: B2 VH
VL: B2 VL with S26E
notes: as for B4
IC50 of inhibition of IL-2 secretion from T-Hyb 1 cells [1]: 2.6 nM (half the concentration of the Fab)
Maximum inhibition(%) of IL-2 secretion [1]: 100%
Kd [2]: 3.18 nM
koff [2]: 0.00062 s⁻¹
kon [2]: 197000 M⁻¹ s⁻¹
Kd [3]: 3.2 nM
koff [3]: 0.00062 s⁻¹
kon [3]: 200000 M⁻¹ s⁻¹
ELISA signal [4]: 1.4
ELISA signal [5]: 0.008
binding result [5]: no binding (tested: 100 ng/well)
ELISA signal [6]: 0.013

B3: MS-GPC-8-6-2 IgG (antibody, V domains shown)
VH: B2 VH
VL: B2 VL with S26E, S35H
IC50 of inhibition of IL-2 secretion from T-Hyb 1 cells [1]: 3.6 nM
Maximum inhibition(%) of IL-2 secretion [1]: 100%

B7: MS-GPC-8-6-19 Fab (Fab, V domains shown)
VH: B2 VH
VL: B2 VL with S26E, S35A
notes: as for B4
IC50 of inhibition of IL-2 secretion from T-Hyb 1 cells [1]: 5.3 nM (half the concentration of the Fab)
Maximum inhibition(%) of IL-2 secretion [1]: 100%
Kd [2]: 8.74 nM
koff [2]: 0.00096 s⁻¹
kon [2]: 110000 M⁻¹ s⁻¹
Kd [3]: 9 nM
koff [3]: 0.001 s⁻¹
kon [3]: 110000 M⁻¹ s⁻¹

B9: MS-GPC-8-9 Fab (Fab, V domains shown)
VH: B2 VH
VL: B2 VL with Y94I, D95Q, H96L, Y97H
notes: as for B4
Kd [2]: 90.1 nM
koff [2]: 0.0166 s⁻¹
kon [2]: 185000 M⁻¹ s⁻¹
Kd [8]: 90.1 nM
koff [8]: 0.0166 s⁻¹
kon [8]: 185000 M⁻¹ s⁻¹

B12: MS-GPC-8-27-10 Fab (Fab, V domains shown)
VH: B2 VH
VL: B2 VL with S26E, S31A, S35N, Y94M, D95N, H96V, Y97H
notes: as for B4
IC50 of inhibition of IL-2 secretion from T-Hyb 1 cells [1]: 7.3 nM (half the concentration of the Fab)
Maximum inhibition(%) of IL-2 secretion [1]: 100%
Kd [2]: 3.01 nM
koff [2]: 0.00053 s⁻¹
kon [2]: 176000 M⁻¹ s⁻¹
Kd [3]: 3 nM
koff [3]: 0.00053 s⁻¹
kon [3]: 180000 M⁻¹ s⁻¹
ELISA signal [4]: 1.49

B13: MS-GPC-8-18 Fab (Fab, V domains shown)
VH: B2 VH
VL: B2 VL with Y94F, D95S, H96I
notes: as for B4
Kd [2]: 78.3 nM
koff [2]: 0.0083 s⁻¹
kon [2]: 106000 M⁻¹ s⁻¹
Kd [8]: 78.3 nM
koff [8]: 0.0083 s⁻¹
kon [8]: 106000 M⁻¹ s⁻¹

B17: L243 (antibody, V domains shown)
VH: QIQLVQSGPELKKPGETVKISCKASGFTFTNYGMNWVKQAPGKGLKWMGWINTYTREPTYADDFKGRFAFSLETSASTAYLQINNLKNEDTAKYFCARDITAVVPTGFDYWGQGTTLTVSS
VL: DIQMTQSPASLSVSVGETVTITCRASENIYSNLAWYRQKQGKSPQLLVFAASNLADGVPSRFSGSGSGTQYSLKINSLQSEDFGDYYCQHFWTTPWAFGGGTNLEIK
EC50 of cell killing, mIgG [7]: 47 nM
